Test results reported in patent publication US20130266605A1, “PEPTIDE INHIBITORS OF CD40L SIGNALING AND USES THEREFOR” (PHYLOGICA LIMITED, priority 2010, published 2013).
Like-named read-outs stand apart in the source and are kept apart here. Positions of bridges follow the written chain, without caps; N, C: chain ends. Residues, ends and D or L forms follow the SMILES beside them. Chains are numbered I, II in the order given. No end group written: not given here. PEG = not defined here

Key:
CD40L = target: T1, CD40L (Homo sapiens, UniProt P29965); test: Octet Red label-free association/dissociation analysis; assay type: binding
T1 sequence (P29965 113-261 limits assumed): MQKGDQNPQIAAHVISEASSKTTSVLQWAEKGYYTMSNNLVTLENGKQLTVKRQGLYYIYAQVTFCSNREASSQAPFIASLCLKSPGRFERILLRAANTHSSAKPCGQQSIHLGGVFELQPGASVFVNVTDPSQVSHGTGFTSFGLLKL
Experimental: Label-free analyses of the associations and dissociations of base peptides and serine derivatives of base peptides with the CD40L target protein were performed using the Octet Red system (ForteBio, Inc., USA) according to the manufacturer's instructions. These analyses provide kinetic constants of CD40L binding activity, especially the association rate constant (Ka) and dissociation rate constant ([…]) of binding, i.e., measures of the “on” and “off” rates of the peptides relative to soluble CD40L.

CD40L-CD40 interaction = target: T2, CD40L-CD40 interaction (Homo sapiens, UniProt P29965); test: Chemiluminescent proximity assay (Alphascreen); assay type: binding
T2 sequence (P29965 113-261 limits assumed): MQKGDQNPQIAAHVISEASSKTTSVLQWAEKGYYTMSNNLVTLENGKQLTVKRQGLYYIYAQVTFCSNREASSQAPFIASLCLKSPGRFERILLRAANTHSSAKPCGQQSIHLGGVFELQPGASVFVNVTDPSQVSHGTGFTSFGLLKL
Experimental: In one example, the Alphascreen assay (PerkinElmer) was employed according to the manufacturer's instructions.
Homodimers and heterodimers were also assayed by chemiluminescent proximity assay for their ability to inhibit CD40L-CD40 interaction.

CD40 ligand [1] = target: T3, CD40 ligand (UniProt P29965 108-261, limits assumed); test: Alphascreen, PEGylated peptide, inhibition of CD40L/CD40-Fc
T3 construct: Used immobilised, soluble, or biotinylated on streptavidin beads; also called CD154; soluble CD40L
T3 sequence (looked up): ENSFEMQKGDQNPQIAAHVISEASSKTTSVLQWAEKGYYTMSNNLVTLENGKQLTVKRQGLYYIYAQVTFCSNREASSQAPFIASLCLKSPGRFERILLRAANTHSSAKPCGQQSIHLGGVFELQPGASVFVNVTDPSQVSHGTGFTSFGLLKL

CD40 ligand [2] = target: T3, CD40 ligand; test: cell-based or functional assay
CD40 ligand [3] = target: T3, CD40 ligand; test: Octet Red label-free (BLI)
CD40 ligand [4] = target: T3, CD40 ligand; test: Alphascreen, unmodified peptide, inhibition of CD40L/CD40-Fc
CD40 ligand [5] = target: T3, CD40 ligand; test: cell-based or functional assay; remark: listed apart in the source
CD40 ligand [6] = target: T3, CD40 ligand; test: Alphascreen proximity assay, inhibition of CD40L-CD40
CD40 ligand [7] = target: T3, CD40 ligand; test: phage-displayed peptide on bound CD40L, soluble CD40L as competitor
[8] = base peptides, equilibrium dissociation constant, read-out: KD
[9] = Cys-Ser derivative peptides, read-out: KD value

CC[C@H](C)[C@H](NC(=O)[C@H](CC(C)C)NC(=O)[C@H](Cc1c[nH]c2ccccc12)NC(=O)[C@H](CCSC)NC(=O)[C@H](CCC(=O)O)NC(=O)CNC(=O)[C@H](CCC(=O)O)NC(=O)[C@H](CC(C)C)NC(=O)[C@H](CO)NC(=O)[C@H](CCC(=O)O)NC(=O)[C@@H](NC(=O)[C@@H](N)CCCNC(=N)N)[C@@H](C)CC)C(=O)N[C@@H](CC(N)=O)C(=O)N1CCC[C@H]1C(=O)N[C@@H](Cc1ccccc1)C(=O)N[C@@H](CC(N)=O)C(=O)NCC(=O)N[C@@H](CCC(=O)O)C(=O)N[C@H](C(=O)N[C@@H](CC(C)C)C(=O)N[C@@H](CC(=O)O)C(=O)N[C@@H](CCC(=O)O)C(=O)N[C@@H](Cc1c[nH]cn1)C(=O)N[C@H](C(=O)N[C@@H](CC(C)C)C(=O)N[C@@H](CCC(=O)O)C(=O)N[C@H](C(=O)N[C@@H](Cc1c[nH]c2ccccc12)C(=O)N[C@@H](CC(C)C)C(=O)N[C@@H](CCCCN)C(=O)O)C(C)C)[C@@H](C)O)[C@@H](C)O [CD40L M8_748] (H-RIESLEGEMWLINPFNGETLDEHTLEVWLK-OH)
Kd (CD40L): 5 nM | EC50 (CD40L-CD40 interaction): 184 nM

CC[C@H](C)[C@H](NC(=O)[C@H](CC(N)=O)NC(=O)[C@H](Cc1ccccc1)NC(=O)[C@@H]1CCCN1C(=O)[C@@H](NC(=O)[C@H](CC(N)=O)NC(=O)[C@@H](NC(=O)CNC(=O)[C@H](Cc1ccccc1)NC(=O)[C@H](CC(C)C)NC(=O)[C@@H](NC(=O)[C@H](Cc1ccccc1)NC(=O)[C@H](CO)NC(=O)[C@@H](N)Cc1c[nH]cn1)C(C)C)C(C)C)C(C)C)C(=O)N[C@H](C(=O)N[C@@H](CC(=O)O)C(=O)N[C@@H](Cc1ccccc1)C(=O)N[C@@H](CCC(N)=O)C(=O)N[C@@H](CCSC)C(=O)N[C@@H](CCCNC(=N)N)C(=O)N[C@H](C(=O)N[C@@H](CCCCN)C(=O)N[C@@H](CS)C(=O)O)C(C)C)[C@@H](C)CC [CD40L M1_42] (H-HSFVLFGVNVPFNIIDFQMRVKC-OH; N-terminus and C-terminus assumed)
Kd (CD40L; [8]): 30 nM

LDLFGDFNGLPEGADRTEFYQHEGHWQNRMILGDSLQVMASLAEREGLRGKVQCIYFDPPYGIKFN [CD40L M9_763]
Kd (CD40L; [8]): 27 nM

CC[C@H](C)[C@H](NC(=O)[C@H](CC(N)=O)NC(=O)[C@H](Cc1ccccc1)NC(=O)[C@@H]1CCCN1C(=O)[C@@H](NC(=O)[C@H](CC(N)=O)NC(=O)[C@@H](NC(=O)CNC(=O)[C@H](Cc1ccccc1)NC(=O)[C@H](CC(C)C)NC(=O)[C@@H](NC(=O)[C@H](Cc1ccccc1)NC(=O)[C@H](CO)NC(=O)[C@@H](N)Cc1c[nH]cn1)C(C)C)C(C)C)C(C)C)C(=O)N[C@H](C(=O)N[C@@H](CC(=O)O)C(=O)N[C@@H](Cc1ccccc1)C(=O)N[C@@H](CCC(N)=O)C(=O)N[C@@H](CCSC)C(=O)N[C@@H](CCCNC(=N)N)C(=O)N[C@H](C(=O)N[C@@H](CCCCN)C(=O)N[C@@H](CO)C(=O)O)C(C)C)[C@@H](C)CC [CD40L M1_42s] (H-HSFVLFGVNVPFNIIDFQMRVKS-OH)
Kd (CD40L; [9]): 100 nM

PFTWRPTIFWIIQLIVYMRHFGGGGSRSELLRENICRYVSLFDHPLQRNTPLDELRFVIFDTETSGFDLVKDRILSIR [CD40L D1_0014]
Kd (CD40L): 48 nM | higher affinity for CD40L than the base monomeric peptide (CD40L; heterodimer versus N-terminal monomer, from Table 2 data): 6 fold

CC[C@H](C)[C@H](NC(=O)[C@H](C)NC(=O)[C@@H](NC(=O)[C@H](CCSC)NC(=O)[C@H](CCC(=O)O)NC(=O)[C@H](CO)NC(=O)[C@@H](N)CC(C)C)[C@@H](C)CC)C(=O)N[C@@H](Cc1ccc(O)cc1)C(=O)N[C@H](C(=O)N[C@@H](Cc1ccccc1)C(=O)N[C@@H](CC(C)C)C(=O)N[C@@H](Cc1c[nH]c2ccccc12)C(=O)N[C@@H](CCCCN)C(=O)N[C@@H](CCCCN)C(=O)N[C@H](C(=O)N[C@@H](Cc1ccccc1)C(=O)N[C@@H](CC(C)C)C(=O)O)C(C)C)C(C)C [CD40L M7_217s] (H-LSEMIAIYVFLWKKVFL-OH; N-terminus and C-terminus assumed)
Kd (CD40L; [9]): 100 nM

CC(C)C[C@H](NC(=O)[C@H](Cc1ccc(O)cc1)NC(=O)[C@H](CC(=O)O)NC(=O)[C@H](CCCNC(=N)N)NC(=O)[C@H](CCCNC(=N)N)NC(=O)[C@H](Cc1ccccc1)NC(=O)[C@H](CO)NC(=O)[C@H](CO)NC(=O)[C@H](Cc1ccc(O)cc1)NC(=O)[C@H](Cc1ccccc1)NC(=O)[C@H](CCCNC(=N)N)NC(=O)[C@H](Cc1ccccc1)NC(=O)[C@H](CC(C)C)NC(=O)[C@H](Cc1ccccc1)NC(=O)[C@H](Cc1ccccc1)NC(=O)[C@H](CC(C)C)NC(=O)[C@H](CC(N)=O)NC(=O)[C@H](Cc1ccc(O)cc1)NC(=O)[C@H](CCCNC(=N)N)NC(=O)[C@@H]1CCCN1C(=O)[C@@H]1CCCN1)C(=O)N[C@@H](Cc1ccc(O)cc1)C(=O)N[C@@H](Cc1ccccc1)C(=O)O [CD40L M1_9s] (H-PPRYNLFFLFRFYSSFRRDYLYF-OH)
Kd (CD40L; [9]): 300 nM

B1: PEGylated CD40L M2_159s (peptide)
peptide: {PEG}-LLYVKVISFFSMLVQYNNFQTYK
modifications: reading uncertain
EC50 (CD40 ligand [1]): 120 nM

B2: PEGylated CD40L M1_9s (peptide)
peptide: {PEG}-PPRYNLFFLFRFYSSFRRDYLYF
modifications: reading uncertain
notes: also called PEGylated M1_9S
EC50 PEGylated peptide, inhibition of CD40L-induced CD86 expression on primary B-cells (CD40 ligand [2]): 180 nM | EC50 (CD40 ligand [1]): 48 nM

B3: PEGylated CD40L M1_18s (peptide)
peptide: {PEG}-LPFVPYRSHVLKYGWFFPVQWSIFAVLPFQYLHRSR
modifications: reading uncertain
notes: also called PEGylated M1-18S
EC50 PEGylated peptide, inhibition of CD40L-induced CD86 expression on primary B-cells (CD40 ligand [2]): 90 nM | EC50 (CD40 ligand [1]): 3300 nM

B4: PEGylated CD40L M1_50s (peptide)
peptide: {PEG}-PRWVRNRFYSLFVPSGVQRGGIHLWFSNWVR
modifications: reading uncertain
notes: also called PEGylated M1_50S
EC50 PEGylated peptide, inhibition of CD40L-induced CD86 expression on primary B-cells (CD40 ligand [2]): 30 nM | EC50 (CD40 ligand [1]): 1500 nM

B5: CD40L M8_721 (peptide)
peptide: LWRLNEWNYSDAELLSLIEWCIDH
notes: Base peptide
Kd (CD40 ligand [3]): 7 nM | EC50 (CD40 ligand [4]): 524 nM

B6: CD40L M7_217 (peptide)
peptide: LCEMIAIYVFLWKKVFL
EC50 unmodified peptide, inhibition of CD40L-induced CD86 expression on primary B-cells (CD40 ligand [2]): 2500 nM

B7: CD40L M9_789 (peptide)
peptide: LLAEQAGTLKSELEAMPLGEYEHAARYVSEVECNWKTFAGNYSECDHCHANHQDWITDIELEESELEVNDYHWILHYTHDEDVEDEMRIHDEHEAKFYYFWPNFT
notes: Base peptide
Kd (CD40 ligand [3]): 4 nM | EC50 (CD40 ligand [4]): 331 nM

B8: Cys_M1_6S-Cys_M1_189S heterodimer (peptide)
peptide 1: CHPFSIKNVFSIWNFFSVY
peptide 2: CLLLFFFSPPFSIFSFSLTTLS
modifications: disulfide I:1-II:1
notes: also called 6-189 dimer
EC50, inhibition of CD40L-induced CD86 expression on primary B-cells (CD40 ligand [5]): 140 nM | EC50 (CD40 ligand [6]): 0.174 pM

B9: LAEHAVWSLKcFPDWEWYNINIFGTDDPNHFWVEcDGHGKILFPGYPEGYYENHFLHSFELED (peptide)
peptide: LAEHAVWSLKCFPDWEWYNINIFGTDDPNHFWVECDGHGKILFPGYPEGYYENHFLHSFELED
modifications: not fully specified
Kd (CD40L; [8]): 8 nM | EC50 (CD40L-CD40 interaction; monomeric non-PEGylated (unmodified) base peptide; 50% reduction in control emission at 520-620 nm; read-out: EC50nmodified) CD40L/CD40-Fc/BAF617): 197 nM

B10: CD40L M7_206 (peptide)
peptide: PFTWRPTIFWIIQLIVYMRHF
notes: Base peptide; also called CD40L M1-206
Kd (CD40 ligand [3]): 280 nM | EC50 (CD40 ligand [4]): 190 nM

B11: PEGylated CD40L M1_30s (peptide)
peptide: {PEG}-DAAGREFFQIAGLFSFRHHWWQA
modifications: reading uncertain
notes: also called PEGylated M1_30S
EC50 PEGylated peptide, inhibition of CD40L-induced CD86 expression on primary B-cells (CD40 ligand [2]): > 2000 nM | EC50 (CD40 ligand [1]): 32 nM

B12: CD40L M1_50 (peptide)
peptide: PRWVRNRFYCLFVPSGVQRGGIHLWFSNWVR
notes: Base peptide
IC50 (CD40 ligand [7]): 45.8 nM

B13: PEGylated CD40L M1_42s (peptide)
peptide: {PEG}-HSFVLFGVNVPFNIIDFQMRVKS
modifications: reading uncertain
notes: also called PEGylated M1_42S
EC50 PEGylated peptide, inhibition of CD40L-induced CD86 expression on primary B-cells (CD40 ligand [2]): 5000 nM | EC50 (CD40 ligand [1]): 112 nM

B14: PEGylated CD40L M1_6s (peptide)
peptide: {PEG}-HPFSIKNVFSIWNFFSVY
modifications: reading uncertain
notes: also called PEGylated M1_6S
EC50 PEGylated peptide, inhibition of CD40L-induced CD86 expression on primary B-cells (CD40 ligand [2]): 1.5 nM | EC50 (CD40 ligand [1]): 48 nM

B15: CD40L M8_720 (peptide)
peptide: RLPETRKAQAALATKYGIYGFCYYHYWFNGRRILESPVDAMLESGEPDFPFMLCWANENWT
notes: Base peptide
Kd (CD40 ligand [3]): 4 nM | EC50 (CD40 ligand [4]): 238 nM

B16: PEGylated CD40L M1_82s (peptide)
peptide: {PEG}-SIQYHWRYSRFKYYFQLIWVYYSHV
modifications: reading uncertain
EC50 (CD40 ligand [1]): 120 nM
